Patent publication US20040142381A1, “Methods for designing IGF1 receptor modulators for therapeutics” (priority 2002, published 2004)

T1: synthetic peptide KKKSPGEYVNIEFG, based on the IRS-1 phosphorylation site Tyr 895
T1 sequence: KKKSPGEYVNIEFG

T2: synthetic peptide substrate KKEEEEYMMMMG
T2 sequence: KKEEEEYMMMMG

B1: IGF1RK (Homo sapiens) (protein)
chain: VYVPDEWEVAREKITMSRELGQGSFGMVYEGVAKGVVKDEPETRVAIKTVNEAASMRERIEFLNEASVMKEFNCHHVVRLLGVVSQGQPTLVIMELMTRGDLKSYLRSLRPEMENNPVLAPPSLSKMIQMAGEIADGMAYLNANKFVHRDLAARNCMVAEDFTVKIGDFGMTRDIYETDYYRKGGKGLLPVRWMSPESLKDGVFTTYSDVWSFGVVLWEIATLAEQPYQGLSNEQVLRFVMEGGLLDKPDNCPDMLFELMRMCWQYNPKMRPSFLEIISSIKEEMEPGFREVSFYYSEENK
notes: encoding residues 956-1,256 of the human insulin-like growth factor 1 receptor (IGF1RK); made in house; host or cells: Spodoptera frugiperda (Sf9) cells, baculovirus

How the values were obtained:
[1] = test system: T1, synthetic peptide KKKSPGEYVNIEFG, based on the IRS-1 phosphorylation site Tyr 895
[2] = test system: T2, synthetic peptide substrate KKEEEEYMMMMG
[3] = target: synthetic peptide substrate …; assay: cell-based or functional assay
[4] = substrate: CC[C@H](C)[C@H](NC(=O)[C@H](CC(N)=O)NC(=O)[C@@H](NC(=O)[C@H](Cc1ccc(O)cc1)NC(=O)[C@H](CCC(=O)O)NC(=O)CNC(=O)[C@@H]1CCCN1C(=O)[C@H](CO)NC(=O)[C@H](CCCCN)NC(=O)[C@H](CCCCN)NC(=O)[C@@H](N)CCCCN)C(C)C)C(=O)N[C@@H](CCC(=O)O)C(=O)N[C@@H](Cc1ccccc1)C(=O)NCC(=O)O; assay: Km of IRS-1 Tyr 895-derived peptide substrate for IGF1RK; type: biochemical, human; conditions: other: peptide as substrate of IGF1RK

Molecule	Peptide Km [2]	other results
IGF1RK (phosphorylation state not stated)		Km [1]: The Km for this peptide was determined to be 128 µM for IGF1RK
IGF1RK, bis-phosphorylated form (2P)	130 µM	
IGF1RK, mono-phosphorylated form (1P)	620 µM	
IGF1RK, tris-phosphorylated, activated form (3P)	120 µM	
IGF1RK, tris-phosphorylated, activated form (3P) (enzyme)		Km for peptide ([γ-32P]ATP and phosphocellulose binding assay) [3]: 150 µM
IGF1RK, unphosphorylated form (0P): tyrosine kinase domain of the human insulin-like growth factor 1 receptor, residues 956-1,256	1300 µM	induction time of autophosphorylation at varying enzyme concentration (continuous spectrophotometric assay): the phosphorylation reaction was concentration dependent
B1		Km [4]: 128 µM
